Assay results: patent publication US20240116985A1 (published 2024)
Starred links: 1 amine or outer side, 2 acyl side, 3 side chain; linkers in the order of their positions; H or OH if unused. Positions of bridges follow the written chain, without caps; N, C: chain ends. Non-standard residues stand in square brackets, D forms with d. Primed or numbered codes have the meaning given here. PyrS2″ = (S)-3-amino-1-((pent-4-en-1-yloxy)carbonyl)pyrrolidine-3-carboxylic acid (stapling residue), C=CCCCOC(=O)N1CC[C@@](N[*:1])(C(=O)[*:2])C1; B5(5) = 2,2-bis(4-pentenyl)glycine, 2-amino-2-(pent-4-en-1-yl)hept-6-enoic acid (stitching residue), C=CCCCC(CCCC=C)(N[*:1])C(=O)[*:2]; PyrS2 = (S)-3-amino-1-((pent-4-en-1-yloxy)carbonyl)pyrrolidine-3-carboxylic acid, C=CCCCOC(=O)N1CC[C@@](N[*:1])(C(=O)[*:2])C1; 5iPr3COOHF = (S)-3-(2-amino-2-carboxyethyl)-5-isopropylbenzoic acid, CC(C)c1cc(C[C@H](N[*:1])C(=O)[*:2])cc(C(=O)[*:3])c1; MorphAsn = (S)-2-amino-4-morpholino-4-oxobutanoic acid, O=C(C[C@H](N[*:1])C(=O)[*:2])N1CCOCC1; Phe(3-COOH) = N[C@@H](Cc1cccc(C(=O)O)c1)C(=O)O; Phe(2-CF3) = N[C@@H](Cc1ccccc1C(F)(F)F)C(=O)O; Bta = N[C@@H](Cc1csc2ccccc12)C(=O)O; Lys(iPr) = CC(C)NCCCC[C@H](N)C(=O)O; αAllylPro = C=CC[C@@]1(C(=O)O)CCCN1; tBuAla = CC(C)(C)C[C@H](N)C(=O)O; 3Thi = N[C@@H](Cc1ccsc1)C(=O)O; Cha = N[C@@H](CC1CCCCC1)C(=O)O; hSer = N[C@@H](CCO)C(=O)O; 34ClF = not defined here; Aib = CC(C)(N)C(=O)O

T1: B-cat-Halo (UniProt P35222 1-781)
T1 sequence (looked up): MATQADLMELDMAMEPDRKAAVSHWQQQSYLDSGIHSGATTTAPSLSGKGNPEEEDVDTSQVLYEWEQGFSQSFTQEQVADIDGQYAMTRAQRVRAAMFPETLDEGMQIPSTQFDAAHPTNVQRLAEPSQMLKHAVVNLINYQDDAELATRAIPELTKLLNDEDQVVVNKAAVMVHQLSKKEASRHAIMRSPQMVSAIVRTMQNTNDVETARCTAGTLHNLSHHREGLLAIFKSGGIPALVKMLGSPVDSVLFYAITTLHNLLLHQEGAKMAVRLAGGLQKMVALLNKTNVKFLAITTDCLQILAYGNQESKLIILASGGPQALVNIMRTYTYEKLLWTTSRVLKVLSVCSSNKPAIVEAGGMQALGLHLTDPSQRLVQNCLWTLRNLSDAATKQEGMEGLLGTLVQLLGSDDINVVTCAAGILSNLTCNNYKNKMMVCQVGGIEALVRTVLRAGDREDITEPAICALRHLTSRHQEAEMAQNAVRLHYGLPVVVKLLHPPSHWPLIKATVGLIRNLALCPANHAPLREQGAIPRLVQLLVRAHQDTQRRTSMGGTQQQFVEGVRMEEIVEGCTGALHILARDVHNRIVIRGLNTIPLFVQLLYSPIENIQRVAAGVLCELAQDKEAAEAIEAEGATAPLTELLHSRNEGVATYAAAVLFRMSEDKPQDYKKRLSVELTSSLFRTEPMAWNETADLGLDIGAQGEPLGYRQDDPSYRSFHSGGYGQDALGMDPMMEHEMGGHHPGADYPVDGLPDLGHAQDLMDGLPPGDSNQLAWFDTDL

T2: beta-catenin in DLD1 TCF/LEF luciferase reporter cells (UniProt P35222 1-781)
T2 sequence (looked up): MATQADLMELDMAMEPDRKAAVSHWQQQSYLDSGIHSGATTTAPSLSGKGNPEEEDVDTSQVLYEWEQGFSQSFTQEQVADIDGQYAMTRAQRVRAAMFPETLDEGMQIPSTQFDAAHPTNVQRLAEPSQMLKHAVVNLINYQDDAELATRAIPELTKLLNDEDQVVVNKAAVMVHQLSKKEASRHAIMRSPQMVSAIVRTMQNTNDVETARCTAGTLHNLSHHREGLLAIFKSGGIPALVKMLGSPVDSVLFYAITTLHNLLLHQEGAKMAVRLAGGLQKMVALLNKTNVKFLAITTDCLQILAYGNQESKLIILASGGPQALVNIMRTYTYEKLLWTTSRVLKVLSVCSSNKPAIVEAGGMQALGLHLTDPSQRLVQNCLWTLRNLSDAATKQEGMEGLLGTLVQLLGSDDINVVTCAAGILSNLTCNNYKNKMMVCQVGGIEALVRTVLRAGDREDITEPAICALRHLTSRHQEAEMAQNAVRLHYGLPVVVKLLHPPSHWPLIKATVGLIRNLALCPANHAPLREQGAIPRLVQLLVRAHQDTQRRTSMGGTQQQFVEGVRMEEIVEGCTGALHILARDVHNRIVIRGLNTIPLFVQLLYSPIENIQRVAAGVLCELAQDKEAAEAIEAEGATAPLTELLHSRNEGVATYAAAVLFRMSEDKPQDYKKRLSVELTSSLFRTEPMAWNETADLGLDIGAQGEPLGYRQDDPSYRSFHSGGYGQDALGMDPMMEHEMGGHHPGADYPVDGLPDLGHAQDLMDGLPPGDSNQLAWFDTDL


Legend:
[1] = biological target: T1, B-cat-Halo; assay: cell-based or functional assay
[2] = biological target: T2, beta-catenin in DLD1 TCF/LEF luciferase …; assay: cell-based or functional assay

| Binder | NanoBRET Abs IC50 [1] | DLD1 4% Abs IC50 [2] |
| --- | --- | --- |
| Ac-[αAllylPro]N[Cha][B5(5)]DQ[Lys(iPr)]AFL[PyrS2″]F[Bta][MorphAsn]-NH2 (staple 1-4, 4-11) [I-2426] | > 20 µM |  |
| Ac-[αAllylPro]D[tBuAla][B5(5)]D[Phe(3-COOH)]AAFL[PyrS2][Phe(2-CF3)][Bta]QVA-NH2 (staple 1-4, 4-11) [I-2401] |  | 0.8 µM |
| Ac-[αAllylPro]N[Cha][B5(5)]DQQAFL[PyrS2″]F[Bta]K-NH2 (staple 1-4, 4-11) [I-2421] | > 20 µM |  |
| Ac-[αAllylPro]D[tBuAla][B5(5)]D[5iPr3COOHF]QAFL[PyrS2″][Phe(2-CF3)][Bta]A-NH2 (staple 1-4, 4-11) [I-2431] | 7 µM |  |
| Ac-[αAllylPro]D[tBuAla][B5(5)]NT[Aib]AFN[PyrS2″][3Thi][Bta]R-NH2 (staple 1-4, 4-11) [I-2413] |  | > 20 µM |
| Ac-[αAllylPro]N[Cha][B5(5)]DQ[hSer]AFL[PyrS2″]F[Bta]K-NH2 (staple 1-4, 4-11) [I-2419] | > 20 µM |  |
| Ac-[αAllylPro]D[tBuAla][B5(5)]NT[Aib]AFN[PyrS2″][3Thi][34ClF]Q-NH2 (staple 1-4, 4-11; reading uncertain; also: printed as Ac-PL3-Asp-Npg-B5-Asn-Thr-Aib-Ala-Phe-Asn-PyrS2-3Thi-34C1F-Gln-NH2) [I-2417] | 21.6 µM |  |
